Biological target: Gp96 receptor (heat shock protein 90 kDa beta (Grp94 or Gp96), member 1 [Homo sapiens]) (Homo sapiens) (UniProt P14625)
Assay: cell-based or functional assay

Sequence of Gp96 receptor (heat shock protein 90 kDa beta (Grp94 or Gp96), member 1 [Homo sapiens]) (Homo sapiens) (P14625 22-803 limits assumed): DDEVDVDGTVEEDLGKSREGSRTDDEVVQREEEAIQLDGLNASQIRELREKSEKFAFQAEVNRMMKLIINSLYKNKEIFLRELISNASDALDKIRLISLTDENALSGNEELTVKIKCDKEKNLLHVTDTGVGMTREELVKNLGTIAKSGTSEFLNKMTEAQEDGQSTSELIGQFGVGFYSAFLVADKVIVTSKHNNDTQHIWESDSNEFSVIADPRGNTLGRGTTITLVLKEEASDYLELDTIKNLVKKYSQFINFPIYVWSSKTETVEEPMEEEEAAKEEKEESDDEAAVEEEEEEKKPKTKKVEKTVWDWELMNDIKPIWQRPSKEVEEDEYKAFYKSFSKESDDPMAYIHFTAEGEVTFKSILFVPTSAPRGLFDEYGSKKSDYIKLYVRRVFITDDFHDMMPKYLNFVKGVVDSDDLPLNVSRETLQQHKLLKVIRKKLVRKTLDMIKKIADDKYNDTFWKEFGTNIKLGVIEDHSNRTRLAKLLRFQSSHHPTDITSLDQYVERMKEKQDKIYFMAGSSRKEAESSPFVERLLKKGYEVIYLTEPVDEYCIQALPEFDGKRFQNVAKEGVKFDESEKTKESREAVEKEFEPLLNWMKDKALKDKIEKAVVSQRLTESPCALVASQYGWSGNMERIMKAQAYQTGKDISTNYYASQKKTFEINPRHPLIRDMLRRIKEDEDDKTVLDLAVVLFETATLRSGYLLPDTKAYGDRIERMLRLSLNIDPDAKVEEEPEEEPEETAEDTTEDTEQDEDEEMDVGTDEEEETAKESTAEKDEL

“OmpA outer membrane protein of E. coli AIEC strain LF82 (from UniProt P0A910 22-346) (ligand)” showed an invasion level of the LF82-ΔompA mutant on IEC pretreated with LF82 OMVs, relative to strain LF82 taken as 100% of 85.2% and a residual invasion level of the LF82-ΔompA mutant in Intestine-407 cells compared to wild-type strain LF82 taken as 100% of 56.3%.

From patent US20130084292A1
